Source: US20230322953A1 (HARBOUR BIOMED SHANGHAI, published 2023)
Substitutions are numbered along the chain they refer to. Numbers in names are those of the source.

T1: human BCMA (human, UniProt Q02223 1-184)
T1 construct: whole, on cells; the cell line is named under assay; also called TNFRSF17; CD269
T1 sequence (looked up): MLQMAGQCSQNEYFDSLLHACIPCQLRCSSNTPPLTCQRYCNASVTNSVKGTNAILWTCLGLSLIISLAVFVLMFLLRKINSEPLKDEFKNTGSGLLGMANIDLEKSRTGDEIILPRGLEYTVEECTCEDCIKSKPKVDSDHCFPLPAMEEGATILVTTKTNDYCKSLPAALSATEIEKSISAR

T2: biotinylated human BCMA-Fc, Avitag recombinant protein (ACRO Biosystems, #BC7-H82F0) (human, UniProt Q02223 1-54, biotinylated)
T2 construct: extracellular domain; Bought protein; also called human BCMA protein; recombinant human BCMA-ECD-Fc; not shown: Fc of the bought fusion protein; Avitag
T2 sequence (looked up): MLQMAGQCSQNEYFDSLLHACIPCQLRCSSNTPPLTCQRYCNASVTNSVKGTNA

B1: PR000300 (bispecific antibody, human IgG1, kappa)
light: DIQMTQSPSTLSASVGDRVTVTCRASQSIYIWLAWYQQKPGKAPNLLIYKASSLETGVPSRFSGSGSGTEFTLTISSLQPDDFATYYCQQYYGSSRTFGQGTKVEIKRTVAAPSVFIFPPSDEQLKSGTASVVCLLNNFYPREAKVQWKVDNALQSGNSQESVTEQDSKDSTYSLSSTLTLSKADYEKHKVYACEVTHQGLSSPVTKSFNRGEC
chain: not shown
notes: PR000070 + VH of PR000184
B2: PR000301 (bispecific antibody, human IgG1, kappa)
chain: EVQLVESGGGLIQPGGSLRLSCAVSGFTVSKNYMSWVRQAPGKGLEWVSVVYSGGSKTYADSVKGRFTISRDNSKNTLYLQMNSLRAEDTAVYYCARAVPHSPSSFDIWGQGTMVTVSSKLEPKSSDKTHTPPPPPRTDIQMTQSPSTLSASVGDRVTVTCRASQSIYIWLAWYQQKPGKAPNLLIYKASSLETGVPSRFSGSGSGTEFTLTISSLQPDDFATYYCQQYYGSSRTFGQGTKVEIKRTVAAPSVFIFPPSDEQLKSGTASVVCLLNNFYPREAKVQWKVDNALQSGNSQESVTEQDSKDSTYSLSSTLTLSKADYEKHKVYACEVTHQGLSSPVTKSFNRGEC
heavy: not shown
B3: PR000184, anti-CTLA4 heavy-chain antibody CL5v3, hIgG1 (antibody, V domains shown)
VH: EVQLVESGGGLIQPGGSLRLSCAVSGFTVSKNYMSWVRQAPGKGLEWVSVVYSGGSKTYADSVKGRFTISRDNSKNTLYLQMNSLRAEDTAVYYCARAVPHSPSSFDIWGQGTMVTVSS
notes: heavy-chain-only antibody (VH-Fc dimer); also called anti-CTLA4 HCAb monoclonal antibody PR000184
B4: PR000943, anti-BCMA HCAb antibody, clone 1005P16A10 (antibody, human IgG1, V domains shown)
VH: EVQLVETGGGLIQPGGSLRLSCAASGFPVSSNYMSWVRQAPGKGLEWVSVIFSGGRTYYADSVKGRFTISRDNSKNTLYLQMNSLRAEDTAVYYCARRNWIDGRDAFDIWGQGTMVTVSS
notes: Heavy-chain-only antibody (HCAb), human IgG1 Fc, no light chain
B5: PR001035, anti-BCMA HCAb antibody, clone 1005P36F3 (antibody, human IgG1, V domains shown)
VH: B4 VH with P28T, S35T, R56S, N99I, W100A, I101V, D102A, R104H, A106V
notes: as for B4
B6: PR001046, anti-BCMA HCAb antibody, clone 1005P63B7 (antibody, human IgG1, V domains shown)
VH: EVQLVETGGGLIQPGGSLRLSCAASGFTVSDNYMTWVRQAPGKGLEWVSVIFSGGNTYYADSVKGRFTISRDNAKNTLYLQMNSLRAEDTALYYCARRNYDDTRGTDVFDIWGQGTMVTVSS
notes: as for B4
B7: PR000274, anti-BCMA monoclonal antibody CA8-J6M0 (antibody, human IgG1, kappa, V domains shown)
VH: QVQLVQSGAEVKKPGSSVKVSCKASGGTFSNYWMHWVRQAPGQGLEWMGATYRGHSDTYYNQKFKGRVTITADKSTSTAYMELSSLRSEDTAVYYCARGAIYDGYDVLDNWGQGTLVTVSS
VL: DIQMTQSPSSLSASVGDRVTITCSASQDISNYLNWYQQKPGKAPKLLIYYTSNLHSGVPSRFSGSGSGTDFTLTISSLQPEDFATYYCQQYRKLPWTFGQGTKLEIKR
notes: Control antibody; also called Positive control 1; CA8-J6M0 hIgG1
B8: PR000401 (bispecific antibody, human IgG1, kappa, L234A L235A)
light: B1 light
chain: EVQLVESGGGLVQPGGSLRLSCAASGFTFSSYWMSWVRQAPGKGLEWVANIKQEGSEKYYVDSVKGRFTISRDNAKNSLYLQMNSLRAEDTAVYYCARDRAVAGAFDIWGQGTMVTVSSASTKGPSVFPLAPSSKSTSGGTAALGCLVKDYFPEPVTVSWNSGALTSGVHTFPAVLQSSGLYSLSSVVTVPSSSLGTQTYICNVNHKPSNTKVDKKVEPKSCDKTHTCPPCPAPEAAGGPSVFLFPPKPKDTLMISRTPEVTCVVVDVSHEDPEVKFNWYVDGVEVHNAKTKPREEQYNSTYRVVSVLTVLHQDWLNGKEYKCKVSNKALGAPIEKTISKAKGQPREPQVYTLPPSREEMTKNQVSLTCLVKGFYPSDIAVEWESNGQPENNYKTTPPVLDSDGSFFLYSKLTVDKSRWQQGNVFSCSVMHEALHNHYTQKSLSLSPGKLEPKSSDKTHTPPPPPRTEVQLVESGGGLIQPGGSLRLSCAVSGFTVSKNYMSWVRQAPGKGLEWVSVVYSGGSKTYADSVKGRFTISRDNSKNTLYLQMNSLRAEDTAVYYCARAVPHSPSSFDIWGQGTMVTVSS
notes: PD-L1×CTLA4, structure 5
B9: PR000265, anti-PD-L1 91G3H5H3(D54E), hIgG1(N297A) (antibody)
heavy: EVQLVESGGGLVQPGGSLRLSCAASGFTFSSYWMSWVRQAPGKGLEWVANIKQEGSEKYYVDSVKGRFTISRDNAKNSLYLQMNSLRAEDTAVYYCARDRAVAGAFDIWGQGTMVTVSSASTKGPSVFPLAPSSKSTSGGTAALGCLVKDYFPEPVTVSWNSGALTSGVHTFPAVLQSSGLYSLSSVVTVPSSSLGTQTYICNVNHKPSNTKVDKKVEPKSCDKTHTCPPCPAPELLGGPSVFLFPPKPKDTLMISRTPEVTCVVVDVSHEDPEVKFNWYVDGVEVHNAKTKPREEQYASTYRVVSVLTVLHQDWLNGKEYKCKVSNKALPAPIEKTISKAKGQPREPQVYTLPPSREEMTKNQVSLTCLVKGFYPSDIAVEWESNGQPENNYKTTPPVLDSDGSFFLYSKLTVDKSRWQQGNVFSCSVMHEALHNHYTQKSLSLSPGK
light: B1 light

Assays:
[1] = biological target: T3, human PD-L1 on cells (CHO-K1/hPDL1; MDA-MB-231) (human, UniProt Q9NZQ7 19-290); test: FACS, CHO-K1/hPDL1 cells (Experiment 1)
T3 construct: whole, on cells
T3 sequence (Q9NZQ7 19-290): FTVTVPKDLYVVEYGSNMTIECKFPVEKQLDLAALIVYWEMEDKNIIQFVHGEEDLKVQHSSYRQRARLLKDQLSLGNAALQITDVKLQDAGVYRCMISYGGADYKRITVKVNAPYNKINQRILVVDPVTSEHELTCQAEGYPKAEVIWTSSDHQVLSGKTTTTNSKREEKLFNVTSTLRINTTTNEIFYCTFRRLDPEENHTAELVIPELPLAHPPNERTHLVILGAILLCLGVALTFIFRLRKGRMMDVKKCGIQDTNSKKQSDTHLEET

[2] = biological target: T3, human PD-L1 on cells (CHO-K1/hPDL1; …); test: competition FACS: biotinylated PD-1 to CHO-K1/hPDL1 cells (Experiment 1)
[3] = biological target: T4, human CTLA4 on cells (CHO-K1/hCTLA4; HEK293/hCTLA4; 293F-hCTLA4) (human, UniProt P16410 36-223); test: FACS, CHO-K1/hCTLA4 cells (Test 1)
T4 construct: whole, on cells
T4 sequence (P16410 36-223): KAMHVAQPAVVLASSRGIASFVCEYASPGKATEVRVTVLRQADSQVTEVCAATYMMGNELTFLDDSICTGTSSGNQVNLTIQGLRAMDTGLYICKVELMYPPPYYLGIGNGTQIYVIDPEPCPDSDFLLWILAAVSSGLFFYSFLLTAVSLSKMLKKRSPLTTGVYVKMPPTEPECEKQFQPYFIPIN

[4] = biological target: T5, human CTLA4-His protein (ACRO Biosystems, #CT4-H5229) (human, UniProt P16410 36-161); test: ELISA, coated hCTLA4-His
T5 construct: extracellular domain; bought; also called hCTLA4-His; human CTLA4 extracellular domain recombinant protein
T5 sequence (P16410 36-161): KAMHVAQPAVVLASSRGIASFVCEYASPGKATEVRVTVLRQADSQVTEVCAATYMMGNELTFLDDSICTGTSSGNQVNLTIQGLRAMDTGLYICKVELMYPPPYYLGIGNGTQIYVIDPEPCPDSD

[5] = biological target: T4, human CTLA4 on cells (CHO-K1/hCTLA4; …); test: cell-based or functional assay
[6] = biological target: T4, human CTLA4 on cells (CHO-K1/hCTLA4; …); test: competition FACS: biotinylated B7-1-Fc to CHO-K1/hCTLA4 cells (Test 1)
[7] = biological target: T6, human PD-L1-His protein (ACRO Biosystems, #PD1-H5229) (human, UniProt Q9NZQ7 19-238); test: ELISA, coated hPD-L1-His
T6 construct: extracellular domain; bought; also called hPDL1-His; human PD-L1 extracellular domain recombinant protein
T6 sequence (Q9NZQ7 19-238): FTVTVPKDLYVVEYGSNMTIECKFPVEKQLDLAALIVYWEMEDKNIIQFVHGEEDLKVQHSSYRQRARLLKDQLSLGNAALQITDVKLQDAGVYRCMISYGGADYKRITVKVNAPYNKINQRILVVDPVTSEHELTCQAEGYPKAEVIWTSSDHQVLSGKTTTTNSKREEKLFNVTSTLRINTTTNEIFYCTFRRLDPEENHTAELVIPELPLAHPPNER

[8] = biological target: T7, biotinylated human CTLA4-Fc protein (ACRO Biosystems, #CT4-H82F3) (human, UniProt P16410 36-161, biotinylated); test: competition ELISA: biotinylated hCTLA4-Fc to coated B7-1-Fc
T7 construct: bought; also called human CTLA4 protein
T7 sequence (P16410 36-161 limits assumed): as the sequence (P16410 36-161) above

[9] = biological target: T4, human CTLA4 on cells (CHO-K1/hCTLA4; …); test: FACS, CHO-K1/hCTLA4 cells (Test 2)
[10] = biological target: T4, human CTLA4 on cells (CHO-K1/hCTLA4; …); test: competition FACS: biotinylated B7-1-Fc to CHO-K1/hCTLA4 cells (Test 2)
[11] = biological target: T4, human CTLA4 on cells (CHO-K1/hCTLA4; …); test: FACS, HEK293/hCTLA4 cells
human BCMA [12] = biological target: T1, human BCMA; test: flow cytometry, NCI-H929 cells
[13] = biological target: T2, biotinylated human BCMA-Fc, Avitag …; test: BLI (Octet Red96e), biotinylated BCMA-Fc on SA sensor, antibody in solution, 1:1 global fit
cynomolgus monkey BCMA = biological target: T8, cynomolgus monkey BCMA (cynomolgus monkey); test: flow cytometry, HEK293T/cyno BCMA cells
T8 construct: whole, on cells; also called cyno BCMA; HEK293T/cyno BCMA cells

human BCMA [14] = biological target: T1, human BCMA; test: cell-based or functional assay
human BCMA [15] = biological target: T1, human BCMA; test: flow cytometry, HEK293T/hBCMA cells
[16] = biological target: T3, human PD-L1 on cells (CHO-K1/hPDL1; …); test: FACS, MDA-MB-231 cells

Binder	EC50 [3]	Maximum MFI [3]	EC50 [4]	Maximum OD450 [4]	ADCC killing of 293F-hCTLA4 cells, EC50 [5]	ADCC killing of 293F-hCTLA4 cells, Maximum killing rate (%) [5]	IC50 [6]	Maximum inhibition rate (%) [6]	IC50 [8]	Maximum inhibition rate (%) [8]	EC50 (human BCMA [12])	Maximum MFI (human BCMA [12])	Kd [13]	koff [13]	kon [13]	EC50 (cynomolgus monkey BCMA)	Maximum MFI (cynomolgus monkey BCMA)	EC50 (nM), target cell killing mediated by antibody internalization (HEK293T/hBCMA cells, a-hFc-MMAF) (human BCMA [14])	EC50 (human BCMA [15])	Maximum MFI (human BCMA [15])	other results
B1	2.91 nM	2620 MFI	0.567 nM	2.95 OD450	0.008 nM	23.8%	6.42 nM	101%	2.09 nM	98.2%											EC50 [1]: 0.884 nM; Maximum MFI [1]: 21000 MFI; IC50 [2]: 0.677 nM; Maximum inhibition rate (%) [2]: 96.6%; EC50 [7]: 0.108 nM; Maximum OD450 [7]: 3.52 OD450
B2	1.94 nM	2360 MFI	0.35 nM	2.92 OD450	0.031 nM	36.6%	3.21 nM	99.9%	2.51 nM	98.3%											EC50 [1]: 0.918 nM; Maximum MFI [1]: 16600 MFI; IC50 [2]: 0.882 nM; Maximum inhibition rate (%) [2]: 96.2%; EC50 [7]: 0.131 nM; Maximum OD450 [7]: 3.53 OD450
B3	1.69 nM	1670 MFI	0.599 nM	3.01 OD450	0.015 nM	30.2%	4.13 nM	99.7%	2.67 nM	97.2%											EC50 [9]: 4.64 nM; Maximum MFI [9]: 722 MFI; IC50 [10]: 3.01 nM; Maximum inhibition rate (%) [10]: 100%; EC50 [11]: 1.15 nM; Maximum MFI [11]: 2260 MFI
B4											4.8 nM	166000	0.162 nM	1.93e-05 s⁻¹	119000 M⁻¹ s⁻¹	0.329 nM	64000	0.492 nM	0.153 nM	70000	Maximum killing rate (%), target cell killing mediated by antibody internalization (HEK293T/hBCMA cells, a-hFc-MMAF) (human BCMA [14]): 78.7%
B5											1.19 nM	113000	0.276 nM	8.98e-05 s⁻¹	325000 M⁻¹ s⁻¹		10800		0.336 nM	39800	
B6											1.53 nM	133000	0.0253 nM	1.07e-05 s⁻¹	423000 M⁻¹ s⁻¹	0.564 nM	67700	0.571 nM	0.213 nM	63400	Maximum killing rate (%), target cell killing mediated by antibody internalization (HEK293T/hBCMA cells, a-hFc-MMAF) (human BCMA [14]): 71.2%
B7											10.8 nM	125000				4.56 nM	116000	2.18 nM	4.08 nM	86500	Maximum killing rate (%), target cell killing mediated by antibody internalization (HEK293T/hBCMA cells, a-hFc-MMAF) (human BCMA [14]): 77.2%
B8																					EC50 [16]: 0.288 nM; Maximum MFI [16]: 994 MFI; EC50 [11]: 5.17 nM; Maximum MFI [11]: 1910 MFI
B9																					EC50 [16]: 0.163 nM; Maximum MFI [16]: 958 MFI
